Values quoted from earlier work as cited in patent publication US20190262496A1, “Compositions and Methods for Collagen-Based Sutures and Antibacterial Coatings” (UNIVERSITY HOSPITALS CLEVELAND MEDICAL CENTER, priority 2016, published 2019).

Details: in vivo

Substance: PDGF-BB: platelet derived growth factor-BB
- half-life of the growth factor: a few minutes
